Results: patent publication US20120321614A1 (Amgen, published 2012)

Columns and labels:
[1] = target: T1, c-Met ECD-Fc (cynomologus) (cynomologus, UniProt A0A2K5UM36 25-932); assay: SPR (BIACORE 3000), cynomologus c-Met ECD-Fc immobilized, antibody injected, 1:1 model
T1 construct: also called cynomologus c-Met ECD-Fc
Protocol: (§1) Experiments were performed in a BIACORE™ 3000 instrument at 25° C. in Dulbecco's phosphate buffered saline containing 0.0005% Tween-20. Protein concentrations were obtained from sedimentation velocity experiments or by measuring the wavelength of the sample at 280 nm using theoretical extinction coefficients derived from amino acid sequences. For experiments measuring the binding of antibody to immobilized antigens, 220 RU (resonance units) of c-Met ECD-Fc (human or cynomologus) was immobilized on a B1 chip (BIACORE™) by standard direct amine coupling procedures. […] For each concentration, samples were injected in duplicate at 5 μl/min flow for 4 min. The dissociation was monitored for 2000 seconds. The data were fit globally to a simple 1:1 binding model using BIACORE™ Biavel software. In addition, to determine the koff independent of any potential error in the active concentration or fitting model, the dissociation data were fit globally and independently from association data to a simple dissociation model.

[2] = target: T2, c-Met expressed on the surface of human A549 lung carcinoma cells (human, UniProt P08581 25-1390); assay: cell-based or functional assay
[3] = target: T3, c-Met ECD/Fc (R&D Systems #358 MT), human (human, UniProt P08581 25-932); assay: ELISA, inhibition of HGF binding to plate-coated c-Met ECD/Fc
T3 construct: extracellular domain; Bought fusion protein; also called c-Met ECD-Fc (human); human Met ECD-Fc; not shown: Fc part of the bought fusion protein
T3 sequence (P08581 25-932): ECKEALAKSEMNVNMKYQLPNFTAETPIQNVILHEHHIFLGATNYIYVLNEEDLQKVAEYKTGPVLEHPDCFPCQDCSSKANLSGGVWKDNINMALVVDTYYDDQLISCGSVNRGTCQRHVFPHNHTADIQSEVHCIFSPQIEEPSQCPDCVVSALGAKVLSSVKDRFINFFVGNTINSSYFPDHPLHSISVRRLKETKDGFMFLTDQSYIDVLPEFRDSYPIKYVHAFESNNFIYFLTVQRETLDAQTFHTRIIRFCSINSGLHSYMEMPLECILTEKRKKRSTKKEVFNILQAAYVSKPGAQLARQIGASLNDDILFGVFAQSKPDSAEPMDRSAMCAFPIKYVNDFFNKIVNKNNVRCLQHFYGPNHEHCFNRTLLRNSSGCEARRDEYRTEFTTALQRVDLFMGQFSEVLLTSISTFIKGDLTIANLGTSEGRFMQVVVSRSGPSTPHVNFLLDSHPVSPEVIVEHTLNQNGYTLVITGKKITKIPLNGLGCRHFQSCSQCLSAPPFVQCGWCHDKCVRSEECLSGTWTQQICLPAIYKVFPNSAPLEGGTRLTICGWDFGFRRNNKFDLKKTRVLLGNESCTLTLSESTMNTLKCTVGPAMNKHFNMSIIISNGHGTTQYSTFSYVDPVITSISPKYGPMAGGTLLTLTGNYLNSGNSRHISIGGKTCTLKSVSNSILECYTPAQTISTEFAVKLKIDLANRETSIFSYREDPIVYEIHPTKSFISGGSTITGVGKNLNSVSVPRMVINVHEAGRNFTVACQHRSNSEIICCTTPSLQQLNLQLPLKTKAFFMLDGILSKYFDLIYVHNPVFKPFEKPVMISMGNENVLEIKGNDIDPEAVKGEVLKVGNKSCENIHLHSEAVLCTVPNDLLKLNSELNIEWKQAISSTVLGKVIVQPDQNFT

[4] = target: T2, c-Met expressed on the surface of human …; assay: flow cytometry on human A549 cells, half-maximal binding at equilibrium
Protocol: (§2) The binding affinity of purified antibodies for c-Met expressed on the surface of human A549 lung carcinoma cells and cynomolgus kidney cells was determined by flow cytometry using the BD™ Biosciences LSR flow cytometer according to manufacturer's protocols.
(§3) Cells grown in culture were washed with PBS, briefly incubated in the presence of 0.25% trypsin-EDTA (Invitrogen) and collected. The collected cells were washed in PBS wash buffer containing 0.025% sodium azide and 2% heat inactivated serum, pelleted and 5×10⁵ cells and resuspended in 500 μl of the same buffer. The time required to achieve equilibrium binding at room temperature for each antibody was determined independently to be between six and eight hours by incubating subsaturating concentrations of each antibody with cells. […] Each antibody was incubated with detached cells for 6 to 8 hours at room temperature depending on the time required to reach equilibrium. Cells were washed, resuspended and incubated in 500 μl of a 1:500 dilution of biotinylated mouse anti-human IgG (Jackson Labs) in PBS wash buffer for 45 minutes on ice. Next, cells were washed, resuspended and incubated with 10 μg/ml streptavidin R-phycoerythrin conjugate (Caltag) in 200 μl PBS wash buffer for 15 min on ice protected from light. Cells were washed and signal was detected with a BD Biosciences LSR flow cytometer according to manufacturer's protocols.

[5] = target: T1, c-Met ECD-Fc (cynomologus); assay: SPR (BIACORE 3000), cynomologus c-Met ECD-Fc immobilized, antibody injected
Protocol: as §1

[6] = target: T3, c-Met ECD/Fc (R&D Systems #358 MT), …; assay: SPR (BIACORE 3000), human c-Met ECD-Fc immobilized, antibody injected
Protocol: as §1

[7] = target: T3, c-Met ECD/Fc (R&D Systems #358 MT), …; assay: SPR (BIACORE 3000), human c-Met ECD-Fc immobilized, antibody injected, 1:1 model
Protocol: as §1

[8] = target: T4, c-Met expressed on the surface of cynomolgus kidney cells (cynomolgus, UniProt A0A2K5UM36 25-1381); assay: flow cytometry on cynomolgus kidney cells, half-maximal binding at equilibrium
T4 construct: also called cynomologus c-Met expressed on the cell surface
T4 sequence (A0A2K5UM36 entry or part of it limits assumed): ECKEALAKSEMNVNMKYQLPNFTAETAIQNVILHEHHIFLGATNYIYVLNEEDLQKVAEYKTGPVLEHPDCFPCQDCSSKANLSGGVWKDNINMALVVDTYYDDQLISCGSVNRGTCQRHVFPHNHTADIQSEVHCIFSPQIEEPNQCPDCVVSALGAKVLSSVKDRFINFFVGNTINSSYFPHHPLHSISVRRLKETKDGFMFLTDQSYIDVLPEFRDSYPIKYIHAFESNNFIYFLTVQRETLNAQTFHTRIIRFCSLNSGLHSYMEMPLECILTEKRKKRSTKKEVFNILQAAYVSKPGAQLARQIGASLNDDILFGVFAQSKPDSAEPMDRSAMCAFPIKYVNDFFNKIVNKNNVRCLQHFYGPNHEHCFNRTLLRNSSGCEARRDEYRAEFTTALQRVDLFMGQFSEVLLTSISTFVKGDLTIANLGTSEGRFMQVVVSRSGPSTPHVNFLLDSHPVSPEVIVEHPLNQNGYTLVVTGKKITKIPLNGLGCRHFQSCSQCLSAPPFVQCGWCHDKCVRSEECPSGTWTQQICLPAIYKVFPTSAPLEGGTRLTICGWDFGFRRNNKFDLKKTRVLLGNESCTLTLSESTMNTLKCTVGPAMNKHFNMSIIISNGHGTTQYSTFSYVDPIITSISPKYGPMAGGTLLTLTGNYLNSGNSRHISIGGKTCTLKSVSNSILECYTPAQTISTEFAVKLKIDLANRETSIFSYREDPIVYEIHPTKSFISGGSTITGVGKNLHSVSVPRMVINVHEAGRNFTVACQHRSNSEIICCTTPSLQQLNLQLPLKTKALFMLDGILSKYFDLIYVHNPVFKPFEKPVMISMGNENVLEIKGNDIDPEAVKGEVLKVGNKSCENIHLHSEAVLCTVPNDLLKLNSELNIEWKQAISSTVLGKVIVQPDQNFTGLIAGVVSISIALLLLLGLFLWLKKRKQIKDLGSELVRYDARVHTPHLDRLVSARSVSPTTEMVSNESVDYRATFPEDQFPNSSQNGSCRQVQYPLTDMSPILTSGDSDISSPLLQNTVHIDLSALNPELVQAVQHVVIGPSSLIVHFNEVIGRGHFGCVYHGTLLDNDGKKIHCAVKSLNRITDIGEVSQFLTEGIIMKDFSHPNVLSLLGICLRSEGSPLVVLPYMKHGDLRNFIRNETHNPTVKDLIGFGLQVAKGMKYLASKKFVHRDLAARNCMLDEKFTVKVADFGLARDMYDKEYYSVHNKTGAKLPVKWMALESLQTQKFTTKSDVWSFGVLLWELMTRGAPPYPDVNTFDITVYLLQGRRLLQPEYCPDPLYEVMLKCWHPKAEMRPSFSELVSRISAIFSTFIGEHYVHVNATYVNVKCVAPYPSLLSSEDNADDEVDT
Protocol: as §2, §3

[9] = target: T5, Insulin-like Growth Factor 1 Receptor (IGF-1R) (UniProt P08069 31-1367, limits assumed); assay: IGF-1R Cell ELISA: IGF-1R tyrosine phosphorylation after IGF-1, % of control. Indirect readout; the legend says that the antibody does not bind IGF-1R
T5 construct: also called IGF-IR

[10] = target: T3, c-Met ECD/Fc (R&D Systems #358 MT), …; assay: Ligand Binding ELISA (competition): plate coated with c-Met ECD/Fc, antibody concentration varied, then HGF added and bound HGF detected; readout is % inhibition of HGF binding
Protocol: The wells were washed four times with Tris-buffered saline (pH=8.0) with 0.05% TWEEN-20 (TBS-T). Next, 200 μl/well of blocking buffer (3% bovine serum albumin (BSA) in TBS-T) was added for 60 minutes (min) at room temperature to block non-specific binding sites. The wells were washed 4 times with 300 μl/well TBS-T. Next, 100 μl of Dulbecco's Modified Eagle medium (DMEM) supplemented with 10% FBS containing anti-c-Met antibodies from hybridoma supernatants or purified antibodies in either PBS or 20 mM sodium acetate (pH=5.5), 140 mM NaCl at various concentrations (e.g., 10, 3, 1, 0.3, 0.1, 0.03, and 0.01 μg/ml, based on human IgG2 concentrations in the supernatants) was added to each well. Anti-c-Met antibody was not added to the control wells of the experiment. The samples were mixed for 4 hours (hrs) at room temperature. […] The samples were mixed for 15 minutes at room temperature. […] The solutions were incubated in the wells for 30 min at room temperature. […] The samples were incubated for 30 min at room temperature. The wells were washed 5 times with TBS-T, about 300 μl/well/wash. Next, 100 μl/well of 3,3′,5,5′-tetramethylbenzidine (TMB) peroxidase substrate (Kirkegaard & Perry Laboratories) was added and developed for 1-2 min at room temperature. […] The samples were read at a wavelength of 450 nanometers (nm) on a 96-well plate reader and no background was subtracted.

T1 sequence (A0A2K5UM36 entry or part of it limits assumed): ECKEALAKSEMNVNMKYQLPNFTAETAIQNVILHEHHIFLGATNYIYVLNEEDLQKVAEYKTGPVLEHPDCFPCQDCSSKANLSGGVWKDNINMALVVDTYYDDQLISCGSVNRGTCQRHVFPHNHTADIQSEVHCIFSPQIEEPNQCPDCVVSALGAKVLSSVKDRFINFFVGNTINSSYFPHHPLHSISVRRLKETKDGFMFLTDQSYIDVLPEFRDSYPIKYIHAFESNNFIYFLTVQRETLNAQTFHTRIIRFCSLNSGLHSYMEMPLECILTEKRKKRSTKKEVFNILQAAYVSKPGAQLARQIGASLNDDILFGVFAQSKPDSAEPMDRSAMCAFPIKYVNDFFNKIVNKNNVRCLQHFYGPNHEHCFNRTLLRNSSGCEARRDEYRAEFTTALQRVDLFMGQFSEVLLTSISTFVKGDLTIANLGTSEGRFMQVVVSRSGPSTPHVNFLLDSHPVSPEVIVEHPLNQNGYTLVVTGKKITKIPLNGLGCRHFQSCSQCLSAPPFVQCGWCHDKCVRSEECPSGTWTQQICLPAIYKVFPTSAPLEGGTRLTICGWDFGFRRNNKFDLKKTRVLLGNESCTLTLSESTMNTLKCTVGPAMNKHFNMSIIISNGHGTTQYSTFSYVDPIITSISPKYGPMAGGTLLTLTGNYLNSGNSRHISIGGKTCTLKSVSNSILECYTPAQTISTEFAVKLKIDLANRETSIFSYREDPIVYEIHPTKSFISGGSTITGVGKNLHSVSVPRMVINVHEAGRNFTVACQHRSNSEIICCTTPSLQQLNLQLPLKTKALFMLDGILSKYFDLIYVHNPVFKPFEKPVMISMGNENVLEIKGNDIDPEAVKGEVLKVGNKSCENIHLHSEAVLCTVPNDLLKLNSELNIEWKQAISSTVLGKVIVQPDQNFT
T2 sequence (P08581 25-1390): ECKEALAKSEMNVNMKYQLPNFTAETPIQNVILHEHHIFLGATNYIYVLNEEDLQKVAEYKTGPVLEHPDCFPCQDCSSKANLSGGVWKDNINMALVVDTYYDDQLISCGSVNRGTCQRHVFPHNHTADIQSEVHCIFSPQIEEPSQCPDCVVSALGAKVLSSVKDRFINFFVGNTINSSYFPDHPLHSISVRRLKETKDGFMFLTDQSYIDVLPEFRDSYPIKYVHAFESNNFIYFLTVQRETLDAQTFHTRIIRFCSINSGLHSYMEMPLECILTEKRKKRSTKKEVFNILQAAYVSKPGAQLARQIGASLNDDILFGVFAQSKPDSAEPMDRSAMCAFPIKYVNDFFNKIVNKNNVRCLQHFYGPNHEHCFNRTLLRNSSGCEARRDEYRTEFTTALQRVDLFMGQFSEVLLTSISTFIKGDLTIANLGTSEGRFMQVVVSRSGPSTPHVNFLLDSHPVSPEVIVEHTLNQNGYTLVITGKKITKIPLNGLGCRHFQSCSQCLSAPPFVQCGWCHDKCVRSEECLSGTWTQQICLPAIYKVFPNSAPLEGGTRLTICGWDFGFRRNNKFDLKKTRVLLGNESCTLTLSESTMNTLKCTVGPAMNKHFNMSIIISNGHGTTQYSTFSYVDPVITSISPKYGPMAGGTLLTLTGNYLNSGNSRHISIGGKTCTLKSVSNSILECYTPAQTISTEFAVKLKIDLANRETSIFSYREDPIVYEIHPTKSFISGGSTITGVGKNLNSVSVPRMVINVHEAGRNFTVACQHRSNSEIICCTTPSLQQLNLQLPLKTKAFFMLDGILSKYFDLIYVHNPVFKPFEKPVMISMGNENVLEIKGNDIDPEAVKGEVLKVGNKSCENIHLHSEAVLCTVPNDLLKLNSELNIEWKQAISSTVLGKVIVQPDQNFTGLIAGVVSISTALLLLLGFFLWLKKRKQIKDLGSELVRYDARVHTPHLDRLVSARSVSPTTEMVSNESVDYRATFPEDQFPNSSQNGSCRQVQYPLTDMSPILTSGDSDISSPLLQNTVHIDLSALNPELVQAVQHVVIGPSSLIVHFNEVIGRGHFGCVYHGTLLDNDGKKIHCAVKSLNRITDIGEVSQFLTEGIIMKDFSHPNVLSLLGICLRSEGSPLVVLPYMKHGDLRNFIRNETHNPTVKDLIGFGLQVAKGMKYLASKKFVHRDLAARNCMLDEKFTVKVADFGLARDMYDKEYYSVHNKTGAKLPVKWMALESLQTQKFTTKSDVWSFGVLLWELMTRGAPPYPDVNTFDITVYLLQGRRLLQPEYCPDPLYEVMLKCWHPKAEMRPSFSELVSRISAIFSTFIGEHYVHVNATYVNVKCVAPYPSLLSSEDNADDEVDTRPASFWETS

Binder | Kd [1] | Agonist Activity [maximum fold stimulation] [2] | Cellular Met Levels [% loss at 1.0 µg/ml] [2] | Cellular pTyr Assay [IC50, µg/ml] [2] | Soft Agar Growth [IC50, µg/ml] [2] | Tubular Morphogenesis Agonism [fold stimulation at 50 µg/ml] [2] | Tubular Morphogenesis Antagonism [% inhibition at 1 µg/ml] [2] | IC50 [3] | Kd [4] | koff [5] | koff [6] | Kd [7] | Kd [8] | binding result [9] | IC50 (read off the curve) [10]
anti-c-Met monoclonal antibody 8.90.3 (antibody, V domains shown, Human IgG2 kappa) VH: EVQLVESGGGLVQPGGSLRLSCAASGFTFSRYSMNWVRQAPGKGLEWVSYISSRSSTIYYADSVKGRFTMSRDNAKNSLYMQMNSLRDEDTAVYYCGYGDYDYFDYWGQGTLVTVSS VL: DIQMTQSPSSVSASVGDRVIITCRASQGISSWLAWYQQKPGKAPKLLIYAASSLKSGVPSRFSGSGSGTDFTVTISSLQPEDFATYYCQQSNSLPWTFGQGTKVEIKR | 1.22 nM | 2.3 fold stimulation (maximum) | 17.5 % loss at 1.0 µg/ml | 0.086 µg/ml | 10.5 µg/mL | 2.5 fold stimulation at 50 µg/ml | 61 % inhibition at 1 µg/ml | 0.11 mg/L | 0.026 nM | 0.00025 s⁻¹ | 0.00015 s⁻¹ | 0.53 nM | 0.393 nM |  | 
anti-c-Met monoclonal antibody 13.3.2 (antibody, human IgG2, kappa, V domains shown, Human IgG2 kappa from XenoMouse hybridoma; The variable positions X2, X4, X6, X8 correspond to positions 42, 97, 14 (heavy) and 91 (light), where position one is the N-terminal amino acid; these numbers may not count on the entry with its leader; also called PTA-5026) VH: QVQLVQSGAEVKKPGASVKVSCEASGYTFTSYGFSWVRQAPGQGLEWMGWISASNGNTYYAQKLQGRVTMTTDTSTSSAYMELRSLRSDDTAVYYCARVYADYADYWGQGTLVTVSS VL: DIQMTQSPSSVSASVGDRVTITCRASQGINTWLAWYQQKPGKAPKLLIYAASSLKSGVPSRFSGSGSGADFTLTISSLQPEDFATYYCQQANSFPLTFGGGTKVEIKR | 0.6 nM | 2.7 fold stimulation (maximum) |  | 0.033 µg/ml | 8.5 µg/mL |  |  | 0.09 mg/L | 0.0393 nM | 0.00029 s⁻¹ | 0.00015 s⁻¹ | 0.22 nM | 0.0486 nM | no binding (tested: 1000 µg/ml) | ~0.03 mg/L
anti-c-Met monoclonal antibody 9.1.2 (antibody, V domains shown, Human IgG2 kappa; also called hybridoma 9.1.2 (LN 15884); PTA-5027) VH: QVQLQESGPGLVKPSQTLSLTCTVSGGSISSGGYYWSWIRQHPGKGLEWIGYIYYSGSTYYNPSLKSRVTISVDTSKNQFSLKLSSVTAADTAVYYCARDGPLGYCSSTSCPVTGEYYYYGMDVWGQGTTVTVSS VL: EIVLTQSPGTLSLSPGERATLSCRASQSVSNNYLAWYQQKPGQAPRLLIFGASSRATGIPDRFSGSGSGTDFTLTISRLEPEDFAVYYCQQYDISPMYSFGQGTKLEMKR | 1.1 nM | 6.5 fold stimulation (maximum) | 46.9 % loss at 1.0 µg/ml | 0.033 µg/ml | 5.5 µg/mL | 2.2 fold stimulation at 50 µg/ml | 84 % inhibition at 1 µg/ml | 0.093 mg/L | 0.169 nM | 9.8e-05 s⁻¹ | 6.8e-05 s⁻¹ | 0.82 nM | 0.168 nM | no binding (tested: 1000 µg/ml) | 

Other lines, results leading:

Kd [1] | Agonist Activity [maximum fold stimulation] [2] | Cellular Met Levels [% loss at 1.0 µg/ml] [2] | Cellular pTyr Assay [IC50, µg/ml] [2] | Soft Agar Growth [IC50, µg/ml] [2] | Tubular Morphogenesis Agonism [fold stimulation at 50 µg/ml] [2] | Tubular Morphogenesis Antagonism [% inhibition at 1 µg/ml] [2] | IC50 [3] | Kd [4] | koff [5] | koff [6] | Kd [7] | Kd [8] | binding result [9] | IC50 (read off the curve) [10] | Binder
0.32 nM | 2.5 fold stimulation (maximum) | 11 % loss at 1.0 µg/ml | 0.143 µg/ml | 25 µg/mL | 8.2 fold stimulation at 50 µg/ml | 25 % inhibition at 1 µg/ml | 0.115 mg/L | 0.0407 nM | 6.5e-05 s⁻¹ | 6.1e-05 s⁻¹ | 0.33 nM | 0.0553 nM |  |  | anti-c-Met monoclonal antibody 8.70.2 (antibody, V domains shown, Human IgG2 kappa; also called hybridoma 8.70.2 (LN 15885); PTA-5028) VH: QLQLQESGPGLVKPSETLSLTCTVSGGSISSSSYYGGWIRQPPGKGLDWIGSIYYSGNTYYNPSLKSRVTISVDTSKNQFSLKLSSVTAADTAVYYCARHSWDYFDYWDQGTLVTVSS VL: DIQMTQSPSSVSASVGDRVTITCRASQGISSWLAWYQQKPGKAPKLLIYAASSLQSGVPSRFSGSGSGTDFTLTISSLQSEDFATYYCQQANSFPITFGPGTKVEIKR
0.61 nM | 2.5 fold stimulation (maximum) | 28.5 % loss at 1.0 µg/ml | 0.032 µg/ml |  |  |  | 0.127 mg/L | 0.056 nM | 0.0004 s⁻¹ | 0.00018 s⁻¹ | 0.2 nM | 0.0733 nM |  | ~0.05 mg/L | anti-c-Met monoclonal antibody 13.3.2L-A91T, H-E42K, S97T (antibody, human IgG2, kappa, V domains shown, positions 42, 97, 14 and 91 count from the N-terminal amino acid and may not count on the entry with its leader) VH: QVQLVQSGAEVKKPGASVKVSCKASGYTFTSYGFSWVRQAPGQGLEWMGWISASNGNTYYAQKLQGRVTMTTDTSTSTAYMELRSLRSDDTAVYYCARVYADYADYWGQGTLVTVSS VL: DIQMTQSPSSVSASVGDRVTITCRASQGINTWLAWYQQKPGKAPKLLIYAASSLKSGVPSRFSGSGSGTDFTLTISSLQPEDFATYYCQQANSFPLTFGGGTKVEIKR
